Columns and labels:
Format in all cases: biochemical
β2-microglobulin (β2m) = biological target: T1, β2-microglobulin (β2m) (Homo sapiens, UniProt P61769); assay: β2-microglobulin fibrillation ThT assay; conditions: 1:1 ratio
T1 construct: purchased MP Biomedical
Protocol: Addition of 5.8 μM αB crystallin peptides, ST, DR, LT, HG, and ER decreased the ThT fluorescence of β2m by 40-64%. When the concentration of the αB crystallin peptides was increased to 29 μM and 145 μM, no further decrease in ThT fluorescence was observed. The negative control peptide AT1 had no effect on β2m fibrillation even at a concentration as high as 290 μM. All five αB crystallin peptides inhibited β2m fibrillation at sub-stoichometric and stoichometric concentrations (5.8 μM and 29 μM).
The Thioflavin T (ThT) fluorescence of β2m in the presence of varying concentrations of αB crystallin peptides and controls was measured. […] When the concentration of the peptides was increased to 29 μM (1:1::peptide:β2m), the αB crystallin peptides decreased the ThT fluorescence by 35-65%. When the concentration of the peptides was increased further to 145 μM ([…]), the αB crystallin peptides decreased the ThT fluorescence by 13-27%. […] The formation and inhibition of β2-microglobulin fibrils was verified microscopically.
β2-microglobulin fibrillation ThT assays were performed as described previously. Raman et al., Biochem J 392:573-81, 2005; Ivanova et al., Proc Natl Acad Sci USA 101:10584-9, 2004. Peptides were dissolved to 2 mM in 0.25% DMSO and diluted accordingly, while β2-microglobulin was dissolved in 25 mM sodium acetate, 25 mM sodium phosphate, pH 2.4. For the 5:1::peptide:β2-microglobulin assay, 10 μL of 430 μM peptide was mixed with 10 μL of 86 μM β2-microglobulin, 7 μl of 25 mM sodium acetate, 25 mM sodium phosphate, pH 2.4 and 3 μL of 1 mM ThT. For the 1:1::peptide:β2-microglobulin assay, 10 μL of 86 μM peptide was mixed with 10 μL of 86 μM (2-microglobulin, 7 μl of 25 mM sodium acetate, 25 mM sodium phosphate, pH 2.4 and 3 μL of 1 mM ThT. For the 1:5::peptide:β2-microglobulin assay, 10 μL of 17.2 μM peptide was mixed with 10 μL of 86 μM β2-microglobulin, 7 μl of 25 mM sodium acetate, 25 mM sodium phosphate, pH 2.4 and 3 μL of 1 mM ThT. ThT fluorescence was measured using a Perkin Elmer Victor^3 V plate reader. Assays were performed in 384-well fluorescence plates in duplicates or triplicates. Samples were incubated at 37° C. ThT fluorescence was measured continuously for 180 minutes. The effect of the peptides and APS was calculated as percentage fibril formation relative to β2-microglobulin alone (100%) at the end of 180 minutes.

amyloid beta (1-42) = amyloid beta (1-42) (Homo sapiens, UniProt P05067); assay: Cu+++-induced aggregation of amyloid beta (1-42), light scattering 360 nm; conditions: 100 mM Cu+++
Protocol: In vitro assays were also performed to measure the ability of the human αB crystallin derived peptides identified in Example 1 to inhibit aggregation of Cu^+++-induced amyloid beta (1-42) aggregation. Aggregation assays were performed using routine procedures, in the presence or absence of a synthesized peptide identified in Example 1, in the presence of 100 mM Cu^+++. Aggregation was measured spectrophotometrically as light scattering at a wavelength of 360 nm. Aggregated amyloid-beta was assigned a value of 100% aggregation and used to normalize aggregation in the presence of synthesize peptides.
Aggregation was measured spectrophotometrically as light scattering at a wavelength of 360 nm. Aggregated amyloid-beta was assigned a value of 100% aggregation and used to normalize aggregation in the presence of synthesize peptides. Aggregation was plotted as a bar graph with the standard error for duplicate experiments. The 1 st vertical bar is the scattering measured for aggregated amyloid-beta (100% aggregation) in the presence of 100 mM Cu^+++. The 2nd-4th vertical bars is the scattering from amyloid-beta in the presence of wild type recombinant human αB crystallin. The 5th-13th vertical bars are the scattering of amyloid-beta in the presence of the synthetic peptides, DRFSVNLDVKHFS or LTITSSLSDGV or HGKHEERQDE at selected concentrations. A prefix of 10× represents a 10:1 molar concentration of amyloid-beta to either wild type αB crystallin or its peptides. A prefix of 1× represents a 1:1 molar concentration of amyloid-beta to either wt αB crystallin or its peptides. A prefix of 0.1× represents a 1:10 molar concentration of amyloid-beta to either wt αB crystallin or its peptides.

βH crystallin = assay: Chaperone assay, thermal aggregation of βH crystallin at 50° C.; conditions: 50:1 molar ratio of peptide:βH crystallin, sixty minutes, 340 nm
Protocol: (§1) The chaperone activity of the peptides was measured as their ability to protect against the thermal aggregation of three chaperone target proteins βH crystallin, ADH and CS in chaperone assays performed at 50° C. (FIG. 19). A non-interactive αB crystallin sequence 111HGKHEERQDE120 was used as the negative control in the chaperone assays (FIG. 19). Based on near and far UVCD, the three target proteins unfolded in the order: CS>>>ADH>>βH crystallin when they were heated at 50° C. for sixty minutes (FIGS. 15 and 16). The thermal aggregation of βH crystallin, ADH and CS was measured as light scattering at λ=340 nm in the presence and absence of each peptide. The chaperone activity of each peptide was calculated as percent protection in which the aggregation of each target protein in the absence of any peptides was set at 0% protection (FIG. 19). The interactive peptides […] and 131LTITSSLSDGV141 were effective inhibitors of aggregation of all three chaperone target proteins.
(§2) A (top left): thermal aggregation of chaperone target proteins βH crystallin, ADH and CS in the absence of peptides was measured as light scattering at λ=340 nm. Each target protein was heated at 50° C. for sixty minutes in the absence or presence of one of the peptides. […] The chaperone activity of each peptide was calculated as percent protection in which the aggregation of each target protein in the absence of any peptides was set at 0% protection. The ability of the 73DRFSVNLDVKHFS85, 131LTITSSLSDGV141 and 111HGKHEERQDE120 to protect against the thermal aggregation of βH crystallin (B: top right), ADH (C: bottom left) and CS (D: bottom right) were tested in vitro (vertical bars). […] A 10:1 molar ratio of peptide:target protein was sufficient in conferring significant protection against the aggregation of CS by 73DRFSVNLDVKHFS85 and 131LTITSSLSDGV141.

ADH = ADH (Equus caballus, UniProt P00327); assay: Chaperone assay, thermal aggregation of ADH at 50° C.; conditions: 50:1 molar ratio of peptide:ADH, sixty minutes, 340 nm
Protocol: as §1, §2

T1 sequence (P61769 21-119): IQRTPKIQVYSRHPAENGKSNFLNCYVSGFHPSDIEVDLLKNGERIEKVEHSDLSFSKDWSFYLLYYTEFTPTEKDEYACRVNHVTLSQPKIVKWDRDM
Chain of ADH (P00327 whole entry): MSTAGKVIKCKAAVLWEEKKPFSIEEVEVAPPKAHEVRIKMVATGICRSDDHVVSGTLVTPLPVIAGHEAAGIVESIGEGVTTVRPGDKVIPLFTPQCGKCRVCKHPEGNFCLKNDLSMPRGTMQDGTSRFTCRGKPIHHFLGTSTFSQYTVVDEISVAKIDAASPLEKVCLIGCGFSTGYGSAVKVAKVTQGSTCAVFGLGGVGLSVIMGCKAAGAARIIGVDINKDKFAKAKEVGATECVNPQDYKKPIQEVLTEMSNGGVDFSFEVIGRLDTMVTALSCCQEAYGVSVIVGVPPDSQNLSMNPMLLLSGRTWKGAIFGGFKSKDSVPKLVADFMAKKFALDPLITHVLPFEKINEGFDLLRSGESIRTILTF

In the case of EERQ, the “inhibition of β2-microglobulin fibril formation, HG derived peptides” value (β2-microglobulin (β2m)) is reported as roughly 100%.
In the case of LTITSSLSDGV, the “prevention of Cu+++-induced aggregation of amyloid-beta” value (amyloid beta (1-42); 1:1 and 1:10 molar ratio of amyloid-beta to peptide) is reported as “equally effective”, the “prevention of Cu+++-induced aggregation of amyloid-beta” value (amyloid beta (1-42); 10:1 molar ratio of amyloid-beta to peptide) is reported as “less effective” and the “percent protection against thermal aggregation of βH crystallin” value (βH crystallin) is reported as “approximately 30%”. The “percent protection against thermal aggregation of ADH” value (ADH) was “approximately 30%”.
In the case of RQDE, the “inhibition of β2-microglobulin fibril formation, HG derived peptides” value (β2-microglobulin (β2m)) is reported as roughly 100%.

— patent US20070185028A1, “Compositions and methods for treatment of protein misfolding and protein aggregation diseases” (priority 2004, published 2007)
